The nanobody polyreactivity screen of Harvey et al. (2022)

test: yeast display, Sf9 membrane polyspecificity reagent, FACS + sequencing; frameworks hold sequencing errors
Summary of the method: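 Polyreactivity labels are assigned by the sorting gate from which each nanobody was recovered. The gates were low and high (top ~1%), set on anti-HA fluorescence for expression and streptavidin fluorescence for reagent binding. Before sorting, galactose-induced (36–48 hours) yeast display cells were stained for 1 hour at 4 °C with 10% biotinylated, detergent-solubilized Sf9 membrane reagent.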

Row | Sequence | polyreactivity (PSR sort gate)
1 | QVQLVESGGGLVQAGGSLRLSCAASGSIFPHNAMGWYRQAPGKERELVAAISVSRGSTYYADSVKGRFTISRDNAKNTVYLQMNSLKPEDTAVYYCAAYAYGGRINGYRTYRYNYWGQGTQVTVSS | high polyreactivity
2 | QVQLVESGGGLVQAGGSLRLSCAASGSIFPHYAMGWYRQAPGKEREFVATISGSTGRTYYADSVKGRFTISRDNAKNTVYLQMNSLKPEDTAVYYCATSVGYYLPPIKYDYWGQGTQVTVSS | low polyreactivity
3 | QVQLVESGGGLVQAGGSLRLSCAASGSIFPIYAMGWYRQAPGKERELVAAISGSGARTYYADSVKGRFTISRDNAKNTVYLQMNSLKPEDTAVYYCNAKYGYDSEARIVKPVRYDYWGQGTQVTVSS | high polyreactivity
4 | QVQLVESGGGLVQAGGSLRLSCAASGSIFPIYAMGWYRQAPGKERELVAGIRGRGGRTYYADSVKGRFTISRDNAKNTVYLQMNSLKPEDTAVYYCAKANLTPQGRGDYDYWGQGTQVTVSS | high polyreactivity
5 | QVQLVESGGGLVQAGGSLRLSCAASGSIFPLYAMGWYRQAPGKERELDASITWSAGNTHYADSVKGRFTISRDNAKNTVYLQMNSLKPEDTAVYYCAADDLWLYYVDDLPINDFDYWGQGTQVTVSS | low polyreactivity
6 | QVQLVESGGGLVQAGGSLRLSCAASGSIFPNNAMGWYRQAPGKERELVAAISSSARTYYADSVKGRFTISRDNAKNTVYLQMNSLKPEDTAVYYCAARWYGRFLMGYWGQGTQVTVSS | high polyreactivity
7 | QVQLVESGGGLVQAGGSLRLSCAASGSIFPNYAMGWYRQAPGKERELVAAISSSGGRTYYADSVKGRFTISRDNAKNTVYLQMNCLKPEDTAVYYCAADTYTSAQHEKYDYWGQGTQVTVSS | low polyreactivity
8 | QVQLVESGGGLVQAGGSLRLSCAASGSIFPPNAMGWSRQAPGKERELVAAISFSGGTSTYYADSVKGRFTISRDNAKNTVYLQMNSLKPEDTAVYYCAARKTTRRYHYDYWGQGTQVTVSS | high polyreactivity
9 | QVQLVESGGGLVQAGGSLRLSCAASGSIFPPNAMGWYRQAPGKEREFVATITGRGGRTYYADSVKGRFTISRDNAKNTVYLQMNSLKPEDTAVYYCAARYTTSSRAKIEYDYWGQGTQVTVSS | high polyreactivity
10 | QVQLVESGGGLVQAGGSLRLSCAASGSIFPRNAMGWYRQAPGKERELVASINSGGSTKYADSVKGRFTISRDNAKNTLYLQMNSLKPEDTAVYYCAAVRPWWRNKPQWPRYDYCGQGTQVTVSS | low polyreactivity
11 | QVQLVESGGGLVQAGGSLRLSCAASGSIFPRNVMGWYRQEPGKERQLVAVITARGGSTYYADSVKGRFTISRDNAKNTVYLQMNSLKPEDTAVYYCATPYSRRKIPPNYDYWGLGTQVTVSS | high polyreactivity
12 | QVQLVESGGGLVQAGGSLRLSCAASGSIFPRYAMGWYRQAPGKERELVAAITSGGSTNYADSVKGRFTISRDNAKNTVYLQMNSLKPDDTAVYYCATVRSLKEGASYFYWGQGTQVTVSS | high polyreactivity
13 | QVQLVESGGGLVQAGGSLRLSCAASGSIFPSNTMGWYRQAPGKERELVATIRWNTGSTYYADSVKGRFTISRDNAKNTVYLQMNSLKPEDTAVYYCAALYVWLWGYRFDYWGQGTQVTVSS | high polyreactivity
14 | QVQLVESGGGLVQAGGSLRLSCAASGSIFPSYAMGWYRLAPGKERELVATISSDGGTNYADSVKGRFTISRDNAKNTVYLQMYSLKPEDTAVYYCATRTTYGQSGSAGPRPYNYWGQGTQVTVSS | low polyreactivity
15 | QVQLVESGGGLVQAGGSLRLSCAASGSIFPSYAMGWYRQAPGKERELVAAISVSGGSTYYADSVKGRFTISRDNAKNTVYLQMNSLKPEDTAVYYCAAQHGYPRYYYWGQGTQVTVSS | high polyreactivity
16 | QVQLVESGGGLVQAGGSLRLSCAASGSIFPSYAMGWYRQAPGKERELVATISGSGTRTYYADSVKGRFTISRDNAKYTFYLQMNSLKPEDTAVYYCAAETHVESGSRDFYTEDYWGQGTQVTVSS | low polyreactivity
17 | QVQLVESGGGLVQAGGSLRLSCAASGSIFPSYAMGWYRQAPGKERELVAVINSGGSTYYADSVKGRFTISRDNAKNTVYFQMNSLKPEDTAVYYCAAYRRRYPRFDYWGQGTQVTVSS | high polyreactivity
18 | QVQLVESGGGLVQAGGSLRLSCAASGSIFPSYAMGWYRQAPRKERELVATIGRGGTTNYADSVKGRFTISRDNAKNTVYLQMNSLKPEDTAVYSCNAERIWRYKDGYDYWGQGTQVTVSS | high polyreactivity
19 | QVQLVESGGGLVQAGGSLRLSCAASGSIFPTYAMGWYRQAPGKERELVAAISWDGDITYYADSVKGRFTISRDHAKNTVYLQMNSLKPEDTAVYYCNASLFIEIYSFQYDDHFAEYGYWGQGTQVTVSS | high polyreactivity
20 | QVQLVESGGGLVQAGGSLRLSCAASGSIFPTYAMGWYRQAPGKERELVAAITGSGGSTYYADSVKGRFTISRDNAKNTVYLQMNSLKPEDTAVYYCAKDVYWYGVWYDYWGQGTQLTVSS | high polyreactivity

Row | Sequence | polyreactivity (PSR sort gate)
21 | QVQLVESGGGLVQAGGSLRLSCAASGSIFPVNAMGWSRQAPGKERELVATITWRGGRTYYADSVKGRFTISRDNAKNTVYLQMNSLKPEDTAVYYCAARLLYRHFGYWGQGTQVTVSS | high polyreactivity
22 | QVQLVESGGGLVQAGGSLRLSCAASGSIFPVYAMGWYRQAPGKERELVAAINSSGGTTYYADSVKGRFTISRDNAKNTVYLQMNSLKPEDTAVYYCAAEISTASYFAKTYDYWGQGTQVTVSS | low polyreactivity
23 | QVQLVESGGGLVQAGGSLRLSCAASGSIFPVYAMGWYRQAPGKERELVAAISWGGGNTYYADSVKGRFTISRDNSKNTVYLQMNSLKPEDTAVYYCNKRSRLGRGNRDYRGQGTQVTVSS | high polyreactivity
24 | QVQLVESGGGLVQAGGSLRLSCAASGSIFPWYAMGWYRPAPGKERELVADITNGSSTNYADSVKGRFTISRDNAKNTVYLQMNSLKPEDTAVYYCARDGIGADGYDYWGQGTQVTVSS | low polyreactivity
25 | QVQLVESGGGLVQAGGSLRLSCAASGSIFPWYAMGWYRQEPGKERELVAAISKSGAGTYYADSVKGRFTISRDTAKNTVYLQMNSLKPEDTAVYYCNARWRSNRAARYDFWGQGTQVTVSS | high polyreactivity
26 | QVQLVESGGGLVQAGGSLRLSCAASGSIFPWYTMGWYRQAPGKERELVAAITSSGGGTYYADSVKGRFTISRDNAKNTVYLQMNSLKPEDTAVYYCAAGLDWGPEYEYWGQGTQVTVSS | low polyreactivity
27 | QVQLVESGGGLVQAGGSLRLSCAASGSIFPYAMGWYRQAPGKERELVAVISWSGASTYYADSVKGRFTISRDNAKNTVYLQMNSLKPEDTAVYYCAVYRYYKLVHLYGYDYWGQGTQVTVSS | high polyreactivity
28 | QVQLVESGGGLVQAGGSLRLSCAASGSIFPYNAMGCYRQAPGKEMELVAVITSSGASTYYADSVKGRFTISLDNSKNTVYLQMNSLKPEDTAVYYCAARGYNYYFGGYDYWGQGTQVTVSS | low polyreactivity
29 | QVQLVESGGGLVQAGGSLRLSCAASGSIFPYYALGWYRQAPGKERELVAAISWSGTSTYYADSVKGRFTISRDNAKNTVYLQMNSLKPEDTAVYYCNAGYYHFYASGYDYWGQGTQVTVSS | low polyreactivity
30 | QVQLVESGGGLVQAGGSLRLSCAASGSIFPYYAMGWYRQAPGKERELVATISNSGGSTYYADSVKGRFTISRDNAKNTVYLQMNSLKPEDTAVYYCAADRGSYPYTGDYWGQGTQVNVSS | low polyreactivity
31 | QVQLVESGGGLVQAGGSLRLSCAASGSIFPYYAMGWYRQAPGKERELVATITYRGGSTNYADSVKGRFTISRDNAKNTVYLQMNSLKPEDTAVYYCAAYGYVLASPYPYSFVKLGYWGQGTQVTVSS | low polyreactivity
32 | QVQLVESGGGLVQAGGSLRLSCAASGSIFQAYAMGWYRQAPGKERELVASISQSGDSTYYADSVKGRFTISRDNAKNTVYLQMNSLNPVDTAVYYCAAVQYGHRRGRVSVRRRLDYWGQGTQVTVSS | low polyreactivity
33 | QVQLVESGGGLVQAGGSLRLSCAASGSIFQCYTMGWSRQAPGKERELVAAISSTGSTNYADCVMGRFTISLDNAKNTVYLQMNSMNPEDTAVFYCAGVGTYLAGYQFDYWGQGTQVTVSS | low polyreactivity
34 | QVQLVESGGGLVQAGGSLRLSCAASGSIFQDNTMGWYRQAPGKERELVAAISWSATSTYYADSVTGRFSISRDNAKNTVYLQMNRLKPEDTAVYDCAAGRSYRRYAYYYWGQGTQVTVSS | high polyreactivity
35 | QVQLVESGGGLVQAGGSLRLSCAASGSIFQFYAMGWYRQAPGKERELVADISYGGSTYYADSVKGRFTISRDNAKKTVYLQMNSLKPEDTAVYYCAAAAYWWVKGFGSYYWGQGTQVTVSS | high polyreactivity
36 | QVQLVESGGGLVQAGGSLRLSCAASGSIFQFYAMGWYRQAPGKERELVAVITTSGVSTYYADSVKGRFTISRDNAKNTVYLQMNSLKPEATAVYYCAADDYYLAGDYWGQGTQVTVSS | low polyreactivity
37 | QVQLVESGGGLVQAGGSLRLSCAASGSIFQLNAKGWYRQAPGKERELVAAITWSGDSTYYADSVKGRFTISRDNAKNTVYLQMNSLKPEDTAVYYCAADVLTTPPPREFEYWGQGTQVTVSS | high polyreactivity
38 | QVQLVESGGGLVQAGGSLRLSCAASGSIFQPYAMGWYRQAPGKERELVAAISSSGGSTTYADSVKGRFTISRDNAKNTVYLQMNSLKPEDTAVYYCAADSADDMGYWGQGTQVTVSS | low polyreactivity
39 | QVQLVESGGGLVQAGGSLRLSCAASGSIFQPYAMGWYRQAPGKERELVAAITNGGSTYYADSVKGRFTISRDNAKNTVYLQMNSLKPEDTAVYYCAADVQSSHEYDYWGQGTQVTVSS | low polyreactivity
40 | QVQLVESGGGLVQAGGSLRLSCAASGSIFQRYAMGWYRQAPGKERECVAAISGRGGSTYYADSVKGRFTISRDNAKNTVYLQMNSLKPEDTAVYYCAADSSRFYGRPRYYYWGQGTQVTVSS | high polyreactivity
